Laboratory results reported in US20060288448.

B1: iwm2s.pk015.c9 cathepsin L-like protease of western corn rootworm midgut (protein)
chain: MKLLILAATLIVAINANLSAFEQWTSFKATHNKFYNVIEDKLRFAVFQENLRKIDAHNAKYEKGEETYYMAVNKFADWSSAEFQAMLDRQMANKPKQSFIAKHVVDPNVQAVEEVDWRESAVLGVKDQGQCGSCWAFSTTGSLEGQLAIHKNQRVPLSEQELVDCDKVNDGCDGGLMTDAFFYIEHHGLSSEEQYPYTGVDGHCNHVKDKQVSSISGYVELDETESALADALANVGPVSIAVEADTWQFYSGGVFNNKNCGDALNHGVLAVGYTKDVFIVKNSWGTGWGEQGYIRVARGSNLCGINLMNSYPKL
B2: iwm2s.pk017.h10 cathepsin L-like protease of western corn rootworm midgut (protein)
chain: MKLFILAAALIVATSANLGAFEKWTSFKATHNKSYNVIEDKLRFAVFQDNLKKIEEHNAKYESGEETYYLAVNKFADWSSAEFQAMLARQMANKPKQSFIAKHVADPNVQAVEEVDWRDSAVLGVKDQGQCGSCWAFSTTGSLEGQLAIHKNQRVPLSEQELVDCDTSRNAGCNGGLMTDAFNYVKRHGLSSESQYAYTGRDDRCKNVENKPLSSISGYVELETTEDALASAVASVGPVSIAVDADTWQLYGGGLFNNKNCRTNLNHGVLAVGYTKDAFIVKNSWGTSWGEQGYIRVARGENLCGINLMNSYPKL

Key:
[1] = target: T1, Angiogenin peptide (Bachem), P03950 (not fully specified)
T1 chain: ENGLPVHLDQSIFRR

β-casein, P02666 = target: T2, β-casein, P02666
T2 chain: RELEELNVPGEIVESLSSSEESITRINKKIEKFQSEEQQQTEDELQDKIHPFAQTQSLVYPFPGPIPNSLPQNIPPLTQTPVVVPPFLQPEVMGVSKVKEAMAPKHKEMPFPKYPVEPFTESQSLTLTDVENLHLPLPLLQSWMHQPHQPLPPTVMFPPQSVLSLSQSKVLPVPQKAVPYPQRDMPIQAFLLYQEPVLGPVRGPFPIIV

Chain of κ-casein, P02668 (P02668 22-190): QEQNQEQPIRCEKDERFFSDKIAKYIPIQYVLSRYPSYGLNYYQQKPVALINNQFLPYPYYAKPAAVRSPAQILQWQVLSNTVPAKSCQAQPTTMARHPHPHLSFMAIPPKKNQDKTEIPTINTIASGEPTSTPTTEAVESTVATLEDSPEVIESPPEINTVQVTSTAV

Protein | proteolytic digestion for 30 or 60 min (LC-MS, N-terminal sequencing) [1] | proteolytic digestion time course (SDS-PAGE, N-terminal sequencing) (β-casein, P02666) | proteolytic digestion, cleavage site mapping (κ-casein, P02668)
B1 | after 30 min two distinct pairs of cleavage products were detected that corresponded to cleavage immediately N-terminal to Leu8 or to Gln10 | The time course of β-casein digestion by c9 showed a major ˜19 kD digestion product (indicated by black arrowhead) by 2 minutes after addition of enzyme | κ-casein was also digested with c9 and h10 ... major detectable cleavage sites were observed after Ser54, Asp62, Serl25, and Met127
B2 | – | – | κ-casein was also digested with c9 and h10 ... major detectable cleavage sites were observed after Ser54, Asp62, Serl25, and Met127
